{"source": "paper PMC5006017", "molecular_target": "syntenin-1 N-terminal wild-type peptide, biotinylated (UniProt O00560)", "test": "SPR; BIAcore 3000; biotinylated syntenin-1 N-terminal peptides immobilised on streptavidin-coupled CM5 chips, ALIX V-domain injected at 20 μl/min; 10 mM HEPES pH 7.4, 150 mM NaCl, 0.005% Surfactant P20; equilibrium analysis, one-site binding model", "data": [{"substance": "ALIX V-domain (ALIX 364-716) (from UniProt Q8WUM4 364-716) (domain or fragment)", "values": [{"measurement": "Kd", "value": 29, "unit": "µM"}]}]}
